Common to all, as to experiment: ITC; GppNHp-Rab35 (480 μM) injected in 2 μl aliquots into the C-terminal MICAL1 domain (60 μM) in the cell; 10 °C; 50 mM Tris pH 8, 150 mM NaCl, 2 mM MgCl2, 2 mM TCEP, 5% glycerol; one-site model
Assay [1] concerns the target MICAL1^879–1067 (tag cleaved, for ITC) (human) (UniProt Q8TDZ2).
The target in assay [2] is MICAL1^918–1067 WT C-terminal domain (tag cleaved) (human) (UniProt Q8TDZ2).
Assay [3] has as its target MICAL1^918–1067 mutant S1 (human) (UniProt Q8TDZ2).

Chain of MICAL1^918–1067 WT C-terminal domain (tag cleaved) (human) (Q8TDZ2 918-1067): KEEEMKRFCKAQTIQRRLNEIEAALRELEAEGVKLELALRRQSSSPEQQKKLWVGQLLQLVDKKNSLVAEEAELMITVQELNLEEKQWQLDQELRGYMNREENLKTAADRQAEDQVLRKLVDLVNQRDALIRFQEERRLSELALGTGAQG
Chain of MICAL1^879–1067 (tag cleaved, for ITC) (human) (Q8TDZ2 879-1067): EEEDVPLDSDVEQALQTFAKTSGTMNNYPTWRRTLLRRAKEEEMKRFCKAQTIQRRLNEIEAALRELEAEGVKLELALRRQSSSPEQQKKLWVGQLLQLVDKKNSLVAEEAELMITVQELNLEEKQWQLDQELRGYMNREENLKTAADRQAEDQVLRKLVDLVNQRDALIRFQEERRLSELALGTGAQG

For orientation: Kd means the equilibrium constant for the complex coming apart. Lower therefore signals higher affinity. As a reminder, the stoichiometry N is a count of units in the complex or per binding partner. Turning to “Rab35 (recombinant, for ITC and competition; Rab35^1-199 taken as the likeliest construct) (from UniProt Q15286 1-199) (natural protein)”, the Kd in assay [1] is 13 µM; in assay [2], 6.4 µM. For the same substance, the stoichiometry N in assay [2] and in assay [3] was 1 each time.

The values above are taken from paper PMC5331220.
